The record followed here is paper PMC7763487 (2020).

Sequences and labels used below:
B1: (Flag)3-TET1 full-length Δ1+2 (Δ109–120 + Δ1132–1202) [mouse] / (HA)3-NANOG [mouse] (parent complex)
chain 1: MSRSRPAKPSKSVKTKLQKKKDIQMKTKTSKQAVRHGASAKAVNPGKPKQLIKRRDGKKETEDKTPTPAPSFLTRAGAARMNRDRNQVLFQNPDSLTCNGFTMALRRTTPKPKKVPPSKKQCTHNIQDEPGVKHSENDSVPSQHATVSPGTENGEQNRCLVEGESQEITQSCPVFEERIEDTQSCISASGNLEAEISWPLEGTHCEELLSHQTSDNECTSPQECAPLPQRSTSEVTSQKNTSNQLADLSSQVESIKLSDPSPNPTGSDHNGFPDSSFRIVPELDLKTCMPLDESVYPTALIRFILAGSQPDVFDTKPQEKTLITTPEQVGSHPNQVLDATSVLGQAFSTLPLQWGFSGANLVQVEALGKGSDSPEDLGAITMLNQQETVAMDMDRNATPDLPIFLPKPPNTVATYSSPLLGPEPHSSTSCGLEVQGATPILTLDSGHTPQLPPNPESSSVPLVIAANGTRAEKQFGTSLFPAVPQGFTVAAENEVQHAPLDLTQGSQAAPSKLEGEISRVSITGSADVKATAMSMPVTQASTSSPPCNSTPPMVERRKRKACGVCEPCQQKANCGECTYCKNRKNSHQICKKRKCEVLKKKPEATSQAQVTKENKRPQREKKPKVLKTDFNNKPVNGPKSESMDCSRRGHGEEEQRLDLITHPLENVRKNAGGMTGIEVEKWAPNKKSHLAEGQVKGSCDANLTGVENPQPSEDDKQQTNPSPTFAQTIRNGMKNVHCLPTDTHLPLNKLNHEEFSKALGNNSSKLLTDPSNCKDAMSVTTSGGECDHLKGPRNTLLFQKPGLNCRSGAEPTIFNNHPNTHSAGSRPHPPEKVPNKEPKDGSPVQPSLLSLMKDRRLTLEQVVAIEALTQLSEAPSESSSPSKPEKDEEAHQKTASLLNSCKAILHSVRKDLQDPNVQGKGLHHDTVVFNGQNRTFKSPDSFATNQALIKSQGYPSSPTAEKKGAAGGRAPFDGFENSHPLPIESHNLENCSQVLSCDQNLSSHDPSCQDAPYSQIEEDVAAQLTQLASTINHINAEVRNAESTPESLVAKNTKQKHSQEKRMVHQKPPSSTQTKPSVPSAKPKKAQKKARATPHANKRKKKPPARSSQENDQKKQEQLAKEKVKVEPSDSLPTCQFKTESGGQTFAEPADNSQGQPMVSVNQEAHPLPQSPPSNQCANIMAGAAQTQFHLGAQENLVHQIPPPTLPGTSPDTLLPDPASILRKGKVLHFDGITVVTEKREAQTSSNGPLGPTTDSAQSEFKESIMDLLSKPAKNLIAGLKEQEAAPCDCDGGTQKEKGPYYTHLGAGPSVAAVRELMETRFGQKGKAIRIEKIVFTGKEGKSSQGCPVAKWVIRRSGPEEKLICLVRERVDHHCSTAVIVVLILLWEGIPRLMADRLYKELTENLRSYSGHPTDRRCTLNKKRTCTCQGIDPKTCGASFSFGCSWSMYFNGCKFGRSENPRKFRLAPNYPLHNYYKRITGMSSEGSDVKTGWIIPDRKTLISREEKQLEKNLQELATVLAPLYKQMAPVAYQNQVEYEEVAGDCRLGNEEGRPFSGVTCCMDFCAHSHKDIHNMHNGSTVVCTLIRADGRDTNCPEDEQLHVLPLYRLADTDEFGSVEGMKAKIKSGAIQVNGPTRKRRLRFTEPVPRCGKRAKMKQNHNKSGSHNTKSFSSASSTSHLVKDESTDFCPLQASSAETSTCTYSKTASGGFAETSSILHCTMPSGAHSGANAAAGECTGTVQPAEVAAHPHQSLPTADSPVHAEPLTSPSEQLTSNQSNQQLPLLSNSQKLASCQVEDERHPEADEPQHPEDDNLPQLDEFWSDSEEIYADPSFGGVAIAPIHGSVLIECARKELHATTSLRSPKRGVPFRVSLVFYQHKSLNKPNHGFDINKIKCKCKKVTKKKPADRECPDVSPEANLSHQIPSRVASTLTRDNVVTVSPYSLTHVAGPYNRWV
chain 2: MSVGLPGPHSLPSSEEASNSGNASSMPAVFHPENYSCLQGSATEMLCTEAASPRPSSEDLPLQGSPDSSTSPKQKLSSPEADKGPEEEENKVLARKQKMRTVFSQAQLCALKDRFQKQKYLSLQQMQELSSILNLSYKQVKTWFQNQRMKCKRWQKNQWLKTSNGLIQKGSAPVEYPSIHCSYPQGYLVNASGSLSMWGSQTWTNPTWSSQTWTNPTWNNQTWTNPTWSSQAWTAQSWNGQPWNAAPLHNFGEDFLQPYVQLQQNFSASDLEVNLEATRESHAHFSTPQALELFLNYSVTPPGEI

Variants of B1 are the subject of this assay. The assay is described as follows: co-immunoprecipitation (anti-Flag IP), quantified immunoblot; E14/T ESCs; parent: 0.29; read off a plot. (In western blotting, separated proteins are transferred to a membrane and probed.)
As for chain 1 F1440A, chain 1 F1442A, chain 1 W1446A, chain 1 Y1449A, chain 1 F1450A, chain 1 F1455A, chain 1 F1464A, the screen value is about 0.065.
